# T1: V. cholerae VibB (Vibrio cholerae serotype O1, UniProt P0C6D3)
# T1 sequence (P0C6D3 whole entry, looked up): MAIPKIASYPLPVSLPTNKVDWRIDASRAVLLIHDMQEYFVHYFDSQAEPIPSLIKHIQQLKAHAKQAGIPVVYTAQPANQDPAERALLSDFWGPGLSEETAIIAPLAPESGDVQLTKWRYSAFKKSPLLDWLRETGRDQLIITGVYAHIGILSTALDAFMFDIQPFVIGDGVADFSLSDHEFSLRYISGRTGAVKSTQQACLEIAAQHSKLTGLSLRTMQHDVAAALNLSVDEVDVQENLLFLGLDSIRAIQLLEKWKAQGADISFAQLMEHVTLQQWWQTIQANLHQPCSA
# T2: S. coelicolor ActACP (Streptomyces coelicolor, UniProt Q02054)
# T2 construct: made in house
# T2 sequence (Q02054 whole entry, looked up): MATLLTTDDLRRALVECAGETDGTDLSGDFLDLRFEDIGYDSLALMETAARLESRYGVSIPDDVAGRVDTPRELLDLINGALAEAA
# T3: crypto-FITC-YbbR (3) (Bacillus subtilis, UniProt O34659)
# T3 construct: made in house; host or cells: enzymatic labelling of FITC-ybbR peptide with Sfp and rhodamine-CoA
# T3 sequence (O34659 whole entry, looked up): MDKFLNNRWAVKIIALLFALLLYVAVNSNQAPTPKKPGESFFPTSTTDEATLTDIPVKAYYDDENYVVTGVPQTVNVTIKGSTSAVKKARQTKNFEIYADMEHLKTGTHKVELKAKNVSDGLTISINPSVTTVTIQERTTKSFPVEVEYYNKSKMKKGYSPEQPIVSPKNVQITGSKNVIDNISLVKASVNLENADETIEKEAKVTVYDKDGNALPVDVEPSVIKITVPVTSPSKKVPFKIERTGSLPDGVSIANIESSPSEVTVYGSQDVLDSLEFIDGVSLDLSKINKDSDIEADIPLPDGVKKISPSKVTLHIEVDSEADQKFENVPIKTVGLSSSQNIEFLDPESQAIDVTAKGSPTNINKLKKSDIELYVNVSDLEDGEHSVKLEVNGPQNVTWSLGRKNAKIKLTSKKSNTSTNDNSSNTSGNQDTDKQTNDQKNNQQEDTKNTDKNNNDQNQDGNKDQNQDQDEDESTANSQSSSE
# B1: PaAcpH: acyl carrier protein hydrolase (AcpH) from P. aeruginosa PAO1, NP13 253043.1 (protein)
# chain: MNYLAHLHLGGPQPAQLLGSLYGDFVKGRLQGQWPDEIERAIQLHRRIDAFTDSHPLVHAAKRRFPLERRRFAGVLLDVFFDHCLARDWNDYADEPLPQFVERVYGTLRTASPLPERLARIAPRMAAQDWLGSYREFAVLREVLGGMSRRLSRPHLLDGSWEELAQRYDDLSADFRAFYPQLQAFALSQR
# Assays:
# E. coli ACP (AcpP) = E. coli ACP (AcpP) (Escherichia coli, UniProt P0A6A8); details: SDS-PAGE
# Protocol: 50 mL LB media supplemented with 25 μM calcium D-pantothenate, 50 mM D-glucose, and 50 μg/mL kanamycin utilized previously. Media was inoculated with 1 mL of overnight DK554 starter culture and grown to OD=0.4. IPTG was added at a concentration of 1 mM to the media and was shaken for 5 hours at 37° C. Media was centrifuged at 4000 rpm at 4° C. for 30 minutes to pellet cells. Cell pellets were resuspended in 25 mM TrisCl pH 7.5, 250 mM NaCl, 0.1 mg/mL lysozyme, 10 μM pepstatin, 10 μM leupeptin and passed twice through a French pressure device at 1000 psi. Removal of coumarin-pantetheine from ACP in 5 mL lysate used 10 μM MBP-AcpH fusion in 600 mL AcpH reaction buffer (50 mM TrisCl, pH 8.0, 100 mM NaCl, 10% glycerol, 15 mM MgCl2, 1 mM MnCl2) within a 3 kDa MWCO dialysis bag at 37° C. overnight.
# E. coli DK554 cell lysate with total protein concentration of approximately 2 mg/mL was added to the volume of premade 10×PPTase reaction buffer (500 mM Na-HEPES, 100 mM MgCl2, pH 7.4) that brought the total reaction concentration to 50 mM Na-HEPES pH 7.4, 10 mM MgCl2, 5 μM of coumarin-CoA, and 2 μM Sfp. […]
# L majuscula JamF = assay: AcpH qualitative CP activity, gel-based, crypto-CP; type: biochemical; details: PKS; crypto-CP (coumarin-PPant), overnight, 37° C., 1 μM AcpH
# E. coli AcpP = E. coli AcpP (Escherichia coli, UniProt P0A6A8); details: FAS; crypto-CP (coumarin-PPant), overnight, 37° C., 1 μM AcpH
# Protocol: (§1) Unless otherwise noted, all coumarin-PPant labeling proceeded as follows: apo-carrier protein or peptide at 50-200 μM were labeled in 50 mM Na-HEPES pH 7.5, 10 mM MgCl2, 8 mM ATP, 0.1 μM MBP-CoaA/D/E, 0.1 μM native Sfp, and 1.1 equivalents of coumarin-pantetheine at 37° C. overnight. Crypto-protein samples were repurified using standard IMAC techniques in pH 8 lysis buffer with Ni-NTA resin, and spin-concentrated/buffer exchanged to remove imidazole and concentrate with 0.5 mL 3 kDa MWCO cellulose filters. Crypto-peptide samples were purified with HPLC, lyophilized, and redissolved in 50 mM TrisCl pH 8.0 prior to analysis.
# (§2) Following AcpH treatment, an equal volume of 2×SDS-PAGE loading dye was added to crypto-carrier proteins samples and heated 5 min at 90° C., and run on 12% or 15% SDS-PAGE. Gels were fixed in 50/40/10% water/methanol/acetic acid for 30 minutes, and washed with water three times before UV imaging. Holo-carrier protein reactions were analyzed with Urea-PAGE as previously described.^6 All protein gels were Coomassie stained for evaluating total protein. Crypto-peptides were evaluated on Urea-PAGE, and were imaged immediately after running with no gel fixing.
# P. aeruginosa AcpP = P. aeruginosa AcpP (Pseudomonas aeruginosa, UniProt O54439); details: FAS; crypto-CP (coumarin-PPant), overnight, 37° C., 1 μM AcpH
# Protocol: as §1, §2
# L majuscula JamC = target: T4, L majuscula JamC (Moorena producens, UniProt Q6E7K7); assay: AcpH qualitative CP activity, gel-based, crypto-CP; type: biochemical; details: PKS; crypto-CP (coumarin-PPant), overnight, 37° C., 1 μM AcpH
# T4 construct: made in house
# P. syringae SyrB1 = P. syringae SyrB1 (Pseudomonas syringae pv. syringae, UniProt Q52400); assay: AcpH qualitative CP activity, gel-based, crypto-CP; type: biochemical; details: NRPS; crypto-CP (coumarin-PPant), overnight, 37° C., 1 μM AcpH
# P. falciparum ACP = assay: AcpH qualitative CP activity, gel-based, crypto-CP; type: biochemical; details: FAS; crypto-CP (coumarin-PPant), overnight, 37° C., 1 μM AcpH
# V. cholerae VibB = target: T1, V. cholerae VibB; details: NRPS; crypto-CP (coumarin-PPant), overnight, 37° C., 1 μM AcpH
# S. coelicolor ActACP = target: T2, S. coelicolor ActACP; assay: AcpH qualitative CP activity, gel-based, crypto-CP; type: biochemical; details: PKS; crypto-CP (coumarin-PPant), overnight, 37° C., 1 μM AcpH
# G. fujikuroi Pks4 = assay: AcpH qualitative CP activity, gel-based, crypto-CP; type: biochemical; details: PKS; crypto-CP (coumarin-PPant), overnight, 37° C., 1 μM AcpH
# M. tuberculosis MAS = assay: AcpH qualitative CP activity, gel-based, crypto-CP; type: biochemical; details: FAS (FAS/PKS hybrid), overnight, 37° C., 1 μM AcpH
# crypto-FITC-YbbR (3) = target: T3, crypto-FITC-YbbR (3); assay: FRET-quench microwell AcpH kinetics; type: biochemical; details: 37° C., FRET-quench microwell plate assay, [AcpH] 1 μm
# Protocol: Preparation of rhodamine-labeled FITC-ybbR proceeded via reaction of 200 μM FITC-ybbR with 200 μM rhodamine WT-CoA synthesized as described previously^33 with 1 μM Sfp in 50 mM HEPES pH 7.5 and 10 mM MgCl2 for 2 hours at 37° C.
# Rhodamine-labeled FITC-Ybbr as well as standard 1:1 apo-FITC-ybbR:rhodamine-CoA was subjected to an 11-point serial dilution in 50 mM TrisCl pH 8.0 to achieve final concentrations of 400-0.4 μM. […] Total reaction volumes were 50 μL and utilized a 96-well Costar 3694 plate (Corning, Lowell, Mass.). Following mixing, reactions were centrifuged for 2 minutes at 1500 rpm, and incubated at 37° C. over 4 hours in a HTS 7000 plus Bioassay Reader (Perkin Elmer, Waltham, Mass.) in kinetic mode. Comparison of enzyme reactions to buffer blank and 1:1 apo-FITC-ybbR:rhodamine-CoA standard allowed calculation of product formation and determination of Michaelis-Menten kinetics using GraphPad Prism.
# A. parasiticus PksA = target: T5, A. parasiticus PksA (Aspergillus parasiticus, UniProt Q12053); assay: AcpH qualitative CP activity, gel-based, crypto-CP; type: biochemical; details: PKS; crypto-CP (coumarin-PPant), overnight, 37° C., 1 μM AcpH
# T5 construct: made in house
# YbbR13 = assay: AcpH activity with modified ybbR peptide, qualitative; type: biochemical; details: coumarin-PPant labeled
molecule,measurement,setting,value
B1,removal of coumarin-PPT from ACP,"E. coli ACP (AcpP); coumarin-labeled E. coli DK554 lysate, 254 nm",uniformly removed
same,removal of rhodamine label from ACP,"E. coli ACP (AcpP); rhodamine-labeled ACP, 532 nm",can also be removed
same,AcpH qualitative CP activity,L majuscula JamF,no
same,AcpH qualitative CP activity,E. coli AcpP,YES
same,AcpH qualitative CP activity,P. aeruginosa AcpP,YES
same,AcpH qualitative CP activity,L majuscula JamC,YES
same,AcpH qualitative CP activity,P. syringae SyrB1,no
same,AcpH qualitative CP activity,P. falciparum ACP,YES
same,AcpH qualitative CP activity,V. cholerae VibB,no
same,AcpH qualitative CP activity,S. coelicolor ActACP,no
same,AcpH qualitative CP activity,G. fujikuroi Pks4,no
same,AcpH qualitative CP activity,M. tuberculosis MAS,no
same,Km,crypto-FITC-YbbR (3),177 µM
same,Vmax,crypto-FITC-YbbR (3),0.008 ± 0.016 min⁻¹
same,kcat,crypto-FITC-YbbR (3),0.00013 ± 0.000267 s⁻¹
same,AcpH qualitative CP activity,A. parasiticus PksA,YES
same,AcpH activity with modified ybbR peptide,"YbbR13; YbbR13: N-term 6xHis, C-term GFP",no
same,AcpH activity with modified ybbR peptide,"YbbR13; YbbR13: N-term FITC, C-term N/A",no
same,AcpH activity with modified ybbR peptide,"YbbR13; YbbR13: N-term GFP, C-term 6xHis",no
same,AcpH activity with modified ybbR peptide,"YbbR13; YbbR13 free peptide: N-term N/A, C-term N/A",no

# Source: US9823254B2, “Reversible chemoenzymatic labeling of native and fusion carrier protein motifs” (The Regents of the University of California, priority 2012, dated 2017)
